From IntAct's records for PubMed 25910212

B1: Retinoic acid receptor RXR-gamma (Homo sapiens), P48443 (parent)
chain: MYGNYSHFMKFPAGYGGSPGHTGSTSMSPSAALSTGKPMDSHPSYTDTPVSAPRTLSAVGTPLNALGSPYRVITSAMGPPSGALAAPPGINLVAPPSSQLNVVNSVSSSEDIKPLPGLPGIGNMNYPSTSPGSLVKHICAICGDRSSGKHYGVYSCEGCKGFFKRTIRKDLIYTCRDNKDCLIDKRQRNRCQYCRYQKCLVMGMKREAVQEERQRSRERAESEAECATSGHEDMPVERILEAELAVEPKTESYGDMNMENSTNDPVTNICHAADKQLFTLVEWAKRIPHFSDLTLEDQVILLRAGWNELLIASFSHRSVSVQDGILLATGLHVHRSSAHSAGVGSIFDRVLTELVSKMKDMQMDKSELGCLRAIVLFNPDAKGLSNPSEVETLREKVYATLEAYTKQKYPEQPGRFAKLLLRLPALRSIGLKCLEHLFFFKLIGDTPIDTFLMEMLETPLQIT
partner: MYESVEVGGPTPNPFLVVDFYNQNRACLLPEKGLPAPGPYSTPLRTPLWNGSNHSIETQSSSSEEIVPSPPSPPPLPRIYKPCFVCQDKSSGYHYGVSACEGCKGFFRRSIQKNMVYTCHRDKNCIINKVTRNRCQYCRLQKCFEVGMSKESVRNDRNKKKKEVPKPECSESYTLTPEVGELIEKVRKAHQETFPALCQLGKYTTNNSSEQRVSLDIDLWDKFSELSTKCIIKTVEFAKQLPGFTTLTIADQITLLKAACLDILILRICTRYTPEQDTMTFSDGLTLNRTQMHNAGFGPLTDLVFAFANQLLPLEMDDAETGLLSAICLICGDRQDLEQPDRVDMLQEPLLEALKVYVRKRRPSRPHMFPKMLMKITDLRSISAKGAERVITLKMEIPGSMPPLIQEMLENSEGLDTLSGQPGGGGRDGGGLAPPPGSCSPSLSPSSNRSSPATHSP
B2: Elongation factor Ts, mitochondrial (Homo sapiens), P43897-2 (parent)
chain: MSLLRSLRVFLVARTGSYPAGSLLRQSPQPRHTFYAGPRLSASASSKELLMKLRRKTGYSFVNCKKALETCGGDLKQAEIWLHKEAQKEGWSKAAKLQGRKTKEGLIGLLQEGNTTVLVEVNCETDFVSRNLKFQLLVQQVALGTMMHCQTLKDQPSAYSKVQWLTPVNLALWEAEAGGSLEGFLNSSELSGLPAGPDREGSLKDQLALAIGKLGENMILKRAAWVKVPSGFYVGSYVHGAMQSPSLHKLVLGKYGALVICETSEQKTNLEDVGRRLGQHVVGMAPLSVGSLDDEPGGEAETKMLSQPYLLDPSITLGQYVQPQGVSVVDFVRFECGEGEEAAETE
partner: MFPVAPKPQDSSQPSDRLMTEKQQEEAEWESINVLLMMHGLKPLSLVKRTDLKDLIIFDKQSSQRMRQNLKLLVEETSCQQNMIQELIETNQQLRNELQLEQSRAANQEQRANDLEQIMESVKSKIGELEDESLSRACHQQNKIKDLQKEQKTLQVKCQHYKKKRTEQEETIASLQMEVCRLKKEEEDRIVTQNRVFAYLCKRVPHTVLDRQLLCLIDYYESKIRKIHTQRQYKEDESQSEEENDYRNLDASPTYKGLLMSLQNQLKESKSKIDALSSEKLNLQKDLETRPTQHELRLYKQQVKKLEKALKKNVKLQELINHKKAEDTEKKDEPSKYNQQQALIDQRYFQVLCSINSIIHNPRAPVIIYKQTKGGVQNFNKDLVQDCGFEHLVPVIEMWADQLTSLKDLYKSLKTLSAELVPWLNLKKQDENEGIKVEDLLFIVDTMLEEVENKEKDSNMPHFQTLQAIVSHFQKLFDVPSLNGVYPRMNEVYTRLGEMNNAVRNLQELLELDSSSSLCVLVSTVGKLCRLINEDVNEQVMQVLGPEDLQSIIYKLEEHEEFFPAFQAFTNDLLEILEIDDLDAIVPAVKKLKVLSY
B3: Basal cell adhesion molecule (Homo sapiens), P50895 (parent)
chain: MEPPDAPAQARGAPRLLLLAVLLAAHPDAQAEVRLSVPPLVEVMRGKSVILDCTPTGTHDHYMLEWFLTDRSGARPRLASAEMQGSELQVTMHDTRGRSPPYQLDSQGRLVLAEAQVGDERDYVCVVRAGAAGTAEATARLNVFAKPEATEVSPNKGTLSVMEDSAQEIATCNSRNGNPAPKITWYRNGQRLEVPVEMNPEGYMTSRTVREASGLLSLTSTLYLRLRKDDRDASFHCAAHYSLPEGRHGRLDSPTFHLTLHYPTEHVQFWVGSPSTPAGWVREGDTVQLLCRGDGSPSPEYTLFRLQDEQEEVLNVNLEGNLTLEGVTRGQSGTYGCRVEDYDAADDVQLSKTLELRVAYLDPLELSEGKVLSLPLNSSAVVNCSVHGLPTPALRWTKDSTPLGDGPMLSLSSITFDSNGTYVCEASLPTVPVLSRTQNFTLLVQGSPELKTAEIEPKADGSWREGDEVTLICSARGHPDPKLSWSQLGGSPAEPIPGRQGWVSSSLTLKVTSALSRDGISCEASNPHGNKRHVFHFGTVSPQTSQAGVAVMAVAVSVGLLLLVVAVFYCVRRKGGPCCRQRREKGAPPPGEPGLSHSGSEQPEQTGLLMGGASGGARGGSGGFGDEC
partner: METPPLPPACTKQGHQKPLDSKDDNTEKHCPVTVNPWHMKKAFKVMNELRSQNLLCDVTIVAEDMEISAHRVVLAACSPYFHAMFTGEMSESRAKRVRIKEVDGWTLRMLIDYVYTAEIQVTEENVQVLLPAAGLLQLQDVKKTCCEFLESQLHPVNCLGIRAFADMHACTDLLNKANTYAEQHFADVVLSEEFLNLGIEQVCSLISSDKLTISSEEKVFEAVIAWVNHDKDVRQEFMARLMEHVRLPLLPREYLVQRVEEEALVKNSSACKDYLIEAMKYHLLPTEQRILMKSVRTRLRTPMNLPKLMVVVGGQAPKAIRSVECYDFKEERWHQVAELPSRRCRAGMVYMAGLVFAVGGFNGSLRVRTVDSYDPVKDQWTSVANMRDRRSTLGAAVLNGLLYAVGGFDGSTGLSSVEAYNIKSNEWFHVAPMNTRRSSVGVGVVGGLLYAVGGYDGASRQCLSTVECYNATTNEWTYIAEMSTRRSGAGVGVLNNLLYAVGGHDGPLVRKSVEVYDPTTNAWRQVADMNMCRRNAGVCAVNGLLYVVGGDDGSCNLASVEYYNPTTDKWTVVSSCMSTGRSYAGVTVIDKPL
B4: U4/U6 small nuclear ribonucleoprotein Prp31 (Homo sapiens), Q8WWY3 (parent)
chain: MSLADELLADLEEAAEEEEGGSYGEEEEEPAIEDVQEETQLDLSGDSVKTIAKLWDSKMFAEIMMKIEEYISKQAKASEVMGPVEAAPEYRVIVDANNLTVEIENELNIIHKFIRDKYSKRFPELESLVPNALDYIRTVKELGNSLDKCKNNENLQQILTNATIMVVSVTASTTQGQQLSEEELERLEEACDMALELNASKHRIYEYVESRMSFIAPNLSIIIGASTAAKIMGVAGGLTNLSKMPACNIMLLGAQRKTLSGFSSTSVLPHTGYIYHSDIVQSLPPDLRRKAARLVAAKCTLAARVDSFHESTEGKVGYELKDEIERKFDKWQEPPPVKQVKPLPAPLDGQRKKRGGRRYRKMKERLGLTEIRKQANRMSFGEIEEDAYQEDLGFSLGHLGKSGSGRVRQTQVNEATKARISKTLQRTLQKQSVVYGGKSTIRDRSSGTASSVAFTPLQGLEIVNPQAAEKKVAEANQKYFSSMAEFLKVKGEKSGLMST
partner: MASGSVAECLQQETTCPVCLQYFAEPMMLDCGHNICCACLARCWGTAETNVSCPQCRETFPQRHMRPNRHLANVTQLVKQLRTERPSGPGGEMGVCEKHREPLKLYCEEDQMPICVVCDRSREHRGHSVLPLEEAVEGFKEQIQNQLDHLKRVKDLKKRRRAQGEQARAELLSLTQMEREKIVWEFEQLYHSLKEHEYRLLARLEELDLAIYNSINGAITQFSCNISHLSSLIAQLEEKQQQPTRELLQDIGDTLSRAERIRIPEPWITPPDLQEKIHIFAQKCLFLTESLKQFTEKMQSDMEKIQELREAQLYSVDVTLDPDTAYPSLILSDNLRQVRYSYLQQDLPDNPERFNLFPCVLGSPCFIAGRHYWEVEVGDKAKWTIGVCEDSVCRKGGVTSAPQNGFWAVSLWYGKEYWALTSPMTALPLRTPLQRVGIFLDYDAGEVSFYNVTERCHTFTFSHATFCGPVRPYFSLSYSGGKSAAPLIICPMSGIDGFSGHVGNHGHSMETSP
B5: Serotonin N-acetyltransferase (Homo sapiens), Q16613 (parent)
chain: MSTQSTHPLKPEAPRLPPGIPESPSCQRRHTLPASEFRCLTPEDAVSAFEIEREAFISVLGVCPLYLDEIRHFLTLCPELSLGWFEEGCLVAFIIGSLWDKERLMQESLTLHRSGGHIAHLHVLAVHRAFRQQGRGPILLWRYLHHLGSQPAVRRAALMCEDALVPFYERFSFHAVGPCAITVGSLTFMELHCSLRGHPFLRRNSGC
B6: Lipopolysaccharide-induced tumor necrosis factor-alpha factor (Homo sapiens), Q99732 (parent)
chain: MSVPGPYQAATGPSSAPSAPPSYEETVAVNSYYPTPPAPMPGPTTGLVTGPDGKGMNPPSYYTQPAPIPNNNPITVQTVYVQHPITFLDRPIQMCCPSCNKMIVSQLSYNAGALTWLSCGSLCLLGCIAGCCFIPFCVDALQDVDHYCPNCRALLGTYKRL

Variants of: B1
Settings: with RARA

effect of a mutation on the interaction	Variant
with no effect	G14S

Variants of: B2
Settings: with cep70_human CEP70, Q8NHQ1

effect of a mutation on the interaction	Variant
disrupting interaction strength	R333W

Variants of: B3
Settings: with klhl2_human KLHL2, O95198

effect of a mutation on the interaction	Variant
with no effect	R77H
with no effect	R175Q
with no effect	S447L
with no effect	T539A

Variants of: B4
Settings: with tri27_human TRIM27, P14373

effect of a mutation on the interaction	Variant
with no effect	L107V

Variants of: B5
Settings: with bhe40_human BHLHE40, O14503
bhe40_human BHLHE40, O14503, sequence (O14503 whole entry): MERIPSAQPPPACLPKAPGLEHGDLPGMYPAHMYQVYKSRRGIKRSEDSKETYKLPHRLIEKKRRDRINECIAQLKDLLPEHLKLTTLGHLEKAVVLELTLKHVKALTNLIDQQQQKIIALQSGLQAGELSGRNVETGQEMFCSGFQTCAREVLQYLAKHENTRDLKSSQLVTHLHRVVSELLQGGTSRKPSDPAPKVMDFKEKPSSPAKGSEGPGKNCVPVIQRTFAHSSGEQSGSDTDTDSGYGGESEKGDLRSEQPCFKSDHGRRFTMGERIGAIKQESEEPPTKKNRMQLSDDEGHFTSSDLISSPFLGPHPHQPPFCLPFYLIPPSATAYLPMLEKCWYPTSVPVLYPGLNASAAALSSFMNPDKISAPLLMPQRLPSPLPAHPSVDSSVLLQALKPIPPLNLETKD

effect of a mutation on the interaction	Variant
disrupting interaction strength	A129T
with no effect	T3M

Variants of: B5
Settings: with mdfi_human MDFI

effect of a mutation on the interaction	Variant
with no effect	A129T
with no effect	T3M

Variants of: B6
Settings: with UBQLN1, Q9UMX0-2
UBQLN1, Q9UMX0-2, sequence (Q9UMX0 other isoform, or with tags, fused parts or gaps): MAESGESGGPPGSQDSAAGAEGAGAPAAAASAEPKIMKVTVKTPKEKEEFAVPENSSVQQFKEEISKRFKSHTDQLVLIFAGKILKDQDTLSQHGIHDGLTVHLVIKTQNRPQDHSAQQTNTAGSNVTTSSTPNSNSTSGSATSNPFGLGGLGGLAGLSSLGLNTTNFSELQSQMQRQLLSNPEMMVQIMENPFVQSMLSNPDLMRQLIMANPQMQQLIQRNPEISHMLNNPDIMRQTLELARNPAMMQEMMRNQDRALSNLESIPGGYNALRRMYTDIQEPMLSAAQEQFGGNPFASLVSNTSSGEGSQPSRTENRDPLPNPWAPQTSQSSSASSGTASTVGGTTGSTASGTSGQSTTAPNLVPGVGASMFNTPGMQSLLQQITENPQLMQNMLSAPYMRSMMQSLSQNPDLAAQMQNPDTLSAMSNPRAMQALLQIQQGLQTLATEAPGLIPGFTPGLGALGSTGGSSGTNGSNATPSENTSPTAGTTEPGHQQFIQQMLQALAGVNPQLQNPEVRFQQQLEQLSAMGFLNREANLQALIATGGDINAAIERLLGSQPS

effect of a mutation on the interaction	Variant
with no effect	I92V
disrupting interaction strength	G112S

Variants of: B6
Settings: with stam2_human STAM2, O75886

effect of a mutation on the interaction	Variant
with no effect	I92V
disrupting interaction strength	G112S

Variants of: B6
Settings: with reep6_human REEP6, Q96HR9
reep6_human REEP6, Q96HR9, sequence (Q96HR9 whole entry): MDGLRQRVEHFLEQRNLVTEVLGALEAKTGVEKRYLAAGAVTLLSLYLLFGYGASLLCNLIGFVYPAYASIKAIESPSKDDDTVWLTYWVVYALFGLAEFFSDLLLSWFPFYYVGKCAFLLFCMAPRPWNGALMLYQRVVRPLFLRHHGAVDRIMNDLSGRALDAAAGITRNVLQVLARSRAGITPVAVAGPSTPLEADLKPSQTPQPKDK

effect of a mutation on the interaction	Variant
with no effect	I92V
disrupting interaction strength	G112S

Variants of: B6
Settings: with hgs_human HGS

effect of a mutation on the interaction	Variant
with no effect	I92V
disrupting interaction strength	G112S

Variants of: B6
Settings: with OPTN

effect of a mutation on the interaction	Variant
with no effect	I92V
disrupting interaction strength	G112S
